Earlier results as cited in patent US20240269065A1, “Implantable Device for Release of Glucagon-Like Peptide-1 Receptor Agonist” (Celanese EVA Performance Polymers LLC, priority 2023, published 2024).

Molecular target: GLP-1 receptor (Homo sapiens, UniProt P43220)
Details: in vitro studies; compared with native GLP-1 and exenatide

GLP-1 receptor, sequence (P43220 24-463, species assumed): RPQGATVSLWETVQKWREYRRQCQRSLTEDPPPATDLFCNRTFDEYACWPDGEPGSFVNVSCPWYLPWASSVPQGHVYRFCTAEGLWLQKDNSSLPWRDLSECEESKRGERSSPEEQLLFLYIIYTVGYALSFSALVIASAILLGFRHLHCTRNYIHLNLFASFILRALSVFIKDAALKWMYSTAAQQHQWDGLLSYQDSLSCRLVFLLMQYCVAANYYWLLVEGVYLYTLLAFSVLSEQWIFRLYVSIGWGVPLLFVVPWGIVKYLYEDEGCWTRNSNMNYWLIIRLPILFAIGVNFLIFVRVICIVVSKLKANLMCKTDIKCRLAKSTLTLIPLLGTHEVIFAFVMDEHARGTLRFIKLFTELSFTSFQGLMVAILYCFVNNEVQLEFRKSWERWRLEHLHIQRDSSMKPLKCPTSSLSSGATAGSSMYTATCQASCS

Substance: Lixisenatide
- affinity for the GLP-1 receptor relative to native GLP-1 and exenatide: four times greater affinity
